In article PMC6155322:
Several values for one entry are separate records, joined by “and”; a condition that tells them apart may be missing. Equal entries are not always repeated.

How the values were obtained:
[1] = molecular target: pyruvate kinase M2 type (PKM2), human HK-2 cells (human (endogenous in HK-2)) (UniProt P14618); test: cross-linking; glutaraldehyde chemical cross-linking of scramble siRNA, sirt3 siRNA transfected and TGFβ alone treated HK-2 cells; Western blot
[2] = molecular target: pyruvate kinase M2 type (PKM2), mouse kidney (mouse (endogenous in kidney)) (UniProt P52480); test: cross-linking; glutaraldehyde added to clarified kidney lysate (4 mg/mL; sodium phosphate buffer pH 7.3, 0.5% Triton X-100), 37 °C for 10 min, stopped with Tris; 5-20% SDS/PAGE and Western blotting; kidneys of control and diabetic CD-1 and C57Bl6 mice, scramble or sirt3 siRNA injected diabetic mice, DCA treated diabetic mice, KK/Ta-Ins2Akita mice and littermate controls

pyruvate kinase M2 type (PKM2), mouse kidney, P52480 1-531 (enzyme; other documents disagree on this pair), sequence (P52480 whole entry): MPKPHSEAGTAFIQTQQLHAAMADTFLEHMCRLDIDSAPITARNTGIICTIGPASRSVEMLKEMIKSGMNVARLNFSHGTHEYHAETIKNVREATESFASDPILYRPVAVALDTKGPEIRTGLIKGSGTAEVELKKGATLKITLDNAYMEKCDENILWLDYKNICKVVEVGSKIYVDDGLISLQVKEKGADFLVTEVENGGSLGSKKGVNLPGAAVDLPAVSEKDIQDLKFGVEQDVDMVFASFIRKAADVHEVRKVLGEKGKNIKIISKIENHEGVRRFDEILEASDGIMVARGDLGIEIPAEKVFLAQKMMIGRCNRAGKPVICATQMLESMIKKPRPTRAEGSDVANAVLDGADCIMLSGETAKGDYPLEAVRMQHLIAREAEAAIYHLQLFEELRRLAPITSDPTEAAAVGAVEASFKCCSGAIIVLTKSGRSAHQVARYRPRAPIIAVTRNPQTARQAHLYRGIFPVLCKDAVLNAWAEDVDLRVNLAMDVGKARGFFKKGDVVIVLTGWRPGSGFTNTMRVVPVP
pyruvate kinase M2 type (PKM2), human HK-2 cells, P14618 1-531 (enzyme; other documents disagree on this pair), sequence (P14618 whole entry): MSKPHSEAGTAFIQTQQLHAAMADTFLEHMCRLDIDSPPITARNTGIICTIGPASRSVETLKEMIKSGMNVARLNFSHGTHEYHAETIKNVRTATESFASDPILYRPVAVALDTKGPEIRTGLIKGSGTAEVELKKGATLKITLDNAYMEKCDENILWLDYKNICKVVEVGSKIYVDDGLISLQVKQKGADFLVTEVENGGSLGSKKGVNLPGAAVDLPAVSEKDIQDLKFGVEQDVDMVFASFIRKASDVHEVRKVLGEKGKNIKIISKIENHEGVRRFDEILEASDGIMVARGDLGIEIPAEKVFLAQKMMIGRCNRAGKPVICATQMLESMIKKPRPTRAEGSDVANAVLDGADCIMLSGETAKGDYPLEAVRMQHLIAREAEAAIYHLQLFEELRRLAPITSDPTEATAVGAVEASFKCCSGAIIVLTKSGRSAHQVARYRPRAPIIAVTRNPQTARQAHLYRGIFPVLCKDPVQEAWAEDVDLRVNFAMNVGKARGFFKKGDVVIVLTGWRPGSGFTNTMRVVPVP

Row | Substance | stoichiometry N [1] | stoichiometry N [2]
1 | pyruvate kinase M2 type (PKM2), human HK-2 cells, P14618 1-531 (enzyme; other documents disagree on this pair) | 2 | –
2 | pyruvate kinase M2 type (PKM2), mouse kidney, P52480 1-531 (enzyme; other documents disagree on this pair) | – | 2 and 4
